Data reported in the supplement of paper PMC9170038.

Tested on: MS2 coat protein
Experiment: apparent KD of MS2 coat protein; designed switch direction (-1 OFF switch, 1 ON switch): -1; higher = weaker reporter binding
How it was run: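 For each design, the apparent KD is the median over clusters of curves fitted to normalised cluster fluorescence. Clusters held RNA switches with common flanks, transcribed on Illumina chips by stalled E. coli RNA polymerase. These were titrated with SNAP-549-labelled MS2 coat protein, doubling from 0.7 or 1.5 nM to 3 µM, without input, with 200 uM small-molecule ligand, or with an oligonucleotide input.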

[1] = input ligand: microRNA oligo, concentration not stated
[2] = Eterna round: R95, input ligand: FMN 200 uM
[3] = Eterna round: R95, input ligand: microRNA oligo, concentration not stated
[4] = Eterna round: R95, input ligand: none

Row | Sequence | apparent KD of MS2 coat protein (input ligand: FMN 200 uM) [nM] | apparent KD of MS2 coat protein (input ligand: none) [nM] | apparent KD of MS2 coat protein [3] [nM] | further results
1 | CACCGUUACAGAGGAUAUGGUACAUGAGGAUCACCCAUGUAAUAAAUGAGAAUUUCGGAUGUAUUCCAGAAGGCUGAAAUCGGC [Ostricism 64 - Jieux - Exclusion NG 2] (Eterna round: R96, puzzle: Exclusion NG 2) | 50.2 | 46.8 | – | apparent KD of MS2 coat protein [1]: 30.2 nM
2 | CACCGUUACCUAGGAUAUAGUACAUGAGGAUCACCCAUGUAAUAAAUGAGAAUUUCGGAUGUAUGCUAGAAGGAGGAAAUCGGC [Ostricism 49 - Jieux - Exclusion NG 2] (Eterna round: R96, puzzle: Exclusion NG 2) | – | – | – | apparent KD of MS2 coat protein [1]: 29.7 nM
3 | CACCGUUACGUAGGAUAUGUUACAUGAGGAUCACCCAUGUAAUAAAUGAGAAUUUCGAAUGUAAUACAGAAGGACGGAAUCGGC [Ostracism 70 - Jieux - Exclusion NG 2] (Eterna round: R96, puzzle: Exclusion NG 2) | 53.3 | 32 | – | apparent KD of MS2 coat protein [1]: 26 nM
4 | CACCGUUAUAUAGGAUAUGUUACAUGAGGAUCACCCAUGUAAUAAAUGAGAAUUUCGAAUGUAAUACAGAAGGAUAGAAUCGGC [Ostracism 72 - Jieux - Exclusion NG 2] (Eterna round: R96, puzzle: Exclusion NG 2) | 27.2 | 22.9 | – | apparent KD of MS2 coat protein [1]: 18.1 nM
5 | CACCUGAAGAGAGGAUAUGAUACAUGAGGAUCACCCAUGUAAUAAAUGAGAAUUUCGAAUGUAAUUCAGAAGGCUCAAUAAGGC [Ostricism 94 - Jieux - Exclusion NG 2] (Eterna round: R96, puzzle: Exclusion NG 2) | 107 | 52 | – | apparent KD of MS2 coat protein [1]: 50.8 nM
6 | CACGGACGAUAAGGAUAUGUUAUAGCUCAAACAGCAGAAGGUGUUAAACCACCGUCACAUGAGGAUCACCCAUGUGUGACAGUU [Eternabot solution 34] (Eterna round: R96, puzzle: Exclusion NG 1) | 46.5 | 40.3 | – | apparent KD of MS2 coat protein [1]: 30.7 nM
7 | CACUUACAUGAGGAUCACCCAUGUGAGGAUAUCGUGACCAGACGAGAAGUCUAUGUCACGAGAAGGCACUUGGG [Exclusion 1 (Mod 2 solution 97 by Eternabot)] (Eterna round: R97, puzzle: Exclusion 1) | 114 | 314 | – | –
8 | CAGAACAGAGGAUAUACAUGAGGAUCACCCAUGUGUUCCAGCUAGGAGACUAGCAUAUGUAGAAGGCUGUUCUG [Mat - Exclusion 3 - JL Mod - D12] (Eterna round: R97, puzzle: Exclusion 3) | 87.7 | 161 | – | –
9 | CAGAAUUGAGGAUAUGAUCAAUUUAACAUGAGGAUCACCCAUGUAUGGGAAUGAUUCUGAUCAGAAGGCGAUUCUU [Exclusion 5: 1:a] (Eterna round: R96, puzzle: Exclusion 5) | 960 | 633 | – | apparent KD of MS2 coat protein [1]: 511 nM
10 | CAGAAUUGAGGAUAUGAUCAAUUUAACAUGAGGAUCACCCAUGUAUGGGAAUGAUUCUGAUCAGAAGGCGAUUCUU [Exclusion 5: 1:a] (puzzle: Exclusion 5) | – | – | 285 | apparent KD of MS2 coat protein [2]: 257 nM; apparent KD of MS2 coat protein [4]: 461 nM
11 | CAGCCCUGAGGAUAUACAUGAGGAUCACCCAUGUGAAGAACGGGAAACGAAACCCUCAGUAGAAGGCGGGUCAU [Eternabot (Original) Solution 14] (Eterna round: R97, puzzle: Exclusion 3) | 131 | 58.9 | – | –
12 | CAGCUGAAAGUGAGGAUAUCUAGAGCGAUAGCUCUAGAGAAGGCACAUGAGGAUCACCCAUGUGAUCACAGCUG [BmEx4/7-A4] (Eterna round: R97, puzzle: Brourd's mod of Exclusion 4) | 1320 | 249 | – | –
13 | CAGCUGAAAGUGAGGAUAUCUAGAGCUGCGGCUCUAGAGAAGGCACAUGAGGAUCACCCAUGUCUCAACAGCUG [BmEx4/1-A3] (Eterna round: R97, puzzle: Brourd's mod of Exclusion 4) | 51.9 | 18.1 | – | –
14 | CAGCUGAAUGUGAGGAUAUGUCGAGCCUCGGCUCGAUAGAAGGCACAUGAGGAUCACCCAUGUCUCAACAGCUG [BmEx4/2-C2] (Eterna round: R97, puzzle: Brourd's mod of Exclusion 4) | 258 | 34 | – | –
15 | CAGGAUAGAGGAUAUACAUAGAUACAGAUUCAUGUGAUCCUACAUGAGGAUCACCCAUGUAGAAGGCUAUCCUG [Fiskers Ex 2 - 21] (Eterna round: R96, puzzle: Exclusion 2) | 216 | 348 | – | apparent KD of MS2 coat protein [1]: 321 nM
16 | CAGGAUAGAGGAUAUACAUAGAUACAGAUUCAUGUGAUCCUACAUGAGGAUCACCCAUGUAGAAGGCUAUCCUG [Fiskers Ex 2 - 21] (puzzle: Exclusion 2) | – | – | 240 | –
17 | CAGGCGUCUGUGCGUGGUGACAUGAGGAUCACCCAUGUUUUGCUCGUUUUGUCUUGGGCUCGGCGCCCGGGUUCGGG [-24.5, -48.6, A 9%] (Eterna round: R97, puzzle: Sensor, turn-off variant 1) | 181 | 208 | – | –

Row | Sequence | apparent KD of MS2 coat protein (input ligand: FMN 200 uM) [nM] | apparent KD of MS2 coat protein (input ligand: none) [nM] | apparent KD of MS2 coat protein [3] [nM] | further results
18 | CAGGGCAUAGGAUAUGCGGGUAAACACCAUGCAUUAGAAUGACAUGAGGAUCACCCAUGUAGAAGGAUGAUAGC [Eternabot (L1) Solution 98] (Eterna round: R97, puzzle: Exclusion 2) | 28.3 | 29.2 | – | –
19 | CAGGUCCGAGGAUAUAUUAUGUGAAACAUGAGGAUCACCCAUGUUAUAUGAUGGAUGUAAAUAGAAGGCGGACUUG [Mat - Exclusion 5 - JL mod - D64] (puzzle: Exclusion 5) | – | – | 29.3 | apparent KD of MS2 coat protein [2]: 23.9 nM; apparent KD of MS2 coat protein [4]: 35.3 nM
20 | CAGUACUGAGGAUAUACAUGAGGAUCACCCAUGUGCUCAAAGUAGGAUACUACUAUUAGUAGAAGGCAGUACUG [Fiskers Ex 3 828 mod 21] (puzzle: Exclusion 3) | – | – | 23.5 | –
21 | CAGUACUGAGGAUAUACAUGAGGAUCACCCAUGUGCUUUAGCUAGGAUACUAGCAUCAGUAGAAGGCAGUACUG [Fiskers Ex 3 828 mod 11] (puzzle: Exclusion 3) | – | – | 12.9 | –
22 | CAGUACUGAGGAUAUACAUGAGGAUCACCCAUGUGUCCUAUAUUAGGAAACUAGGUAUGUAGAAGGCAGUACUG [Omei Ex3 Mod of Eli 4.27 v5] (Eterna round: R97, puzzle: Exclusion 3) | 485 | 340 | – | –
23 | CAGUACUGAGGAUAUACAUGAGGAUCACCCAUGUGUCUAAUAUUAGGAAACUAGGUAUGUAGAAGGCAGUACUG [Omei Ex3 Mod of Eli 4.27 v6] (Eterna round: R97, puzzle: Exclusion 3) | 318 | 36.1 | – | –
24 | CAGUACUGAGGAUAUACAUGAGGAUCACCCAUGUGUUCCAGCUAGGAAACUAGCAAAAGUAGAAGGUAGUACUG [salish99_ex3_r3_086 (!)] (puzzle: Exclusion 3) | – | – | 14.7 | –
25 | CAGUACUGAGGAUAUACAUGAGGAUCACCCAUGUGUUCCAGCUAGGAAGCUAGCAAAAGUAGAAGGCAGUACUG [salish99_ex3_r3_073] (puzzle: Exclusion 3) | – | – | 26.6 | –
26 | CAGUACUGAGGAUAUACAUGAGGAUCACCCAUGUGUUCGAGCUAGGAAACUAGCAAAAGUAGAAGGCAGUACUG [salish99_ex3_r3_080] (puzzle: Exclusion 3) | – | – | 15.4 | apparent KD of MS2 coat protein [2]: 85.2 nM; apparent KD of MS2 coat protein [4]: 14.9 nM
27 | CAGUUUUGAGUGAGGAUAUGUGAUCCAAAGGGUCAACAGAAGGCACAUGAGGAUCACCCAUGUAAUCCAAUUGG [Eternabot (L2) Solution 37] (Eterna round: R97, puzzle: Brourd's mod of Exclusion 4) | 1520 | 3760 | – | –
28 | CAUACUAAAGUCAGGAUAUGCAGUCGAAUACGGGUGUAGAAGGGACAUGAGGAUCACCCAUGUAGAUAGUAAAG [EX-4 Malc #20] (puzzle: Brourd's mod of Exclusion 4) | – | – | 48.9 | apparent KD of MS2 coat protein [2]: 37.9 nM; apparent KD of MS2 coat protein [4]: 42.2 nM
29 | CAUACUGAAGUUAGGAUAUGCGGCCGAAUACGGAUGUAGAAGGGACAUGAGGAUCACCCAUGUAGAUAGUAAAG [EX-4 Malc #15] (puzzle: Brourd's mod of Exclusion 4) | – | – | 20.1 | apparent KD of MS2 coat protein [2]: 20.8 nM; apparent KD of MS2 coat protein [4]: 20.5 nM
30 | CAUAUUCGAGGAUAUGCCUGAUGUCCUUAUGGAGCCCAUUCACAUGAGGAUCACCCAUGUAGAAGGCGGAUGCG [Eternabot (L1) Solution 37] (Eterna round: R97, puzzle: Exclusion 2) | 31.2 | 24.8 | – | –
31 | CAUGGAACAUAGGAUAUCUCGCGGCUAGGCUGCAGAGAAGGAUGUACAUGAGGAUCACCCAUGUAUGAUCCAAU [Ataratin] (puzzle: Exclusion 6) | – | – | 16.3 | –
32 | CAUGGUUAACGAUUAUUCAACAUGAGGAUCACCCAUGUCUCUUUUUCUUUUUGCUCGUCUUAUCCUCCUUUGUUCAC [JR_STOV1_v2_Sub0102] (Eterna round: R97, puzzle: Sensor, turn-off variant 1) | 379 | 412 | – | –
33 | CAUGUGUAAGGAUAUGACAAUGGUAUCUUCGGAUACCAUUGUCAGAAGGUACAUGAGGAUCACCCAUGUGGAUC [Ex4-3: 20] (puzzle: Exclusion 4) | – | – | 222 | –
34 | CAUUAUUAUCGAGGAUAUCCUAUUGAAAUUCUGGGAGAAGGCGGACUCAACAUGAGGAUCACCCAUGUGGGACGGAUGCUAGGA [salish99_exng1_r04_602] (Eterna round: R96, puzzle: Exclusion NG 1) | – | – | – | apparent KD of MS2 coat protein [1]: 13.3 nM
